The source of these data is PMC4975481, “Importance of Hypervariable Region 2 for Stability and Affinity of a Shark Single-Domain Antibody Specific for Ebola Virus Nucleoprotein” (PLoS ONE, 2016).

The target in the experiment is T1, Ebola virus Viral Protein 40 (Ebola virus (Zaire ebolavirus), strain …, UniProt Q05128).
T1 construct: also called VP40; VP 40; source: bought: IBT Bioservices
The experiment in a line: SPR. The note with it: both partners purified.

T1 sequence (Q05128 whole entry): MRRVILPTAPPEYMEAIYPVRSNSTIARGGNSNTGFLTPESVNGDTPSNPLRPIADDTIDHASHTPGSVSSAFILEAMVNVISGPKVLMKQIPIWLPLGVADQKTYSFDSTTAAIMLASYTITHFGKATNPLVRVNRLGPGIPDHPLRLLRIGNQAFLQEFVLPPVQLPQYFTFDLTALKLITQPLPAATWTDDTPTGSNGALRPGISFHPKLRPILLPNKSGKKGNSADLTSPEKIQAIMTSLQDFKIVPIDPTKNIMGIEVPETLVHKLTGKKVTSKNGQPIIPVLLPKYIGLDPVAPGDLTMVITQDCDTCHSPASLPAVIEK

B1: shark096 (VHH)
VHH: RVDQTPRSVTKETGESLTINCVLRDASYAVGSTCWYRKKSGSTNEESISKGGRYVETVNSGSKSFSLRINDLTVEDGGTYRCGVSTYNWCGVRGLGCVHGACGDGTAVTVN
notes: also called unfused sdAb portion of DSTL096; parental sdAb
As to B1, the binding result was “no binding”.
